Data published in patent publication US20250270315A1 (ELPISCIENCE SUZHOU BIOPHARMA, published 2025).
Each block holds one binder with its values, some of them ahead of it.

Tests used:
[1] = target: T1, mFc tagged human SIRPα v1 ECD recombinant protein (human, UniProt P78324 31-373); test: competitive ELISA binning, mFc-SIRPα v1 ECD; competitor hu1H9G4
T1 construct: extracellular domain; Bought from Biointron; not shown: mouse IgG Fc (mFc) tag
Description: (§1) Competitive ELISA assay was used for epitope binning of purified chimeric antibodies. Briefly excessive competitor antibody and mFc tagged human SIRPα v1 ECD recombinant protein were co-incubated with ELISA microplate coated antibody. After washing, HRP labeled anti-mouse Fc 2nd antibody (Sigma) was added and incubated at 37° C. for 1 hour. Then, 100 μl/well of TMB solution (Biotechnology) was added. After incubation for 15 minutes at room temperature, the reaction was stopped by the addition of 50 μl of 1N HCl. OD 450 nm was read. Competition ratio was calculated. The antibodies that can compete each other for binding to SIRPα may have related binding epitopes.

[2] = target: full length human SIRPα v1 with a small beta-gal fragment (ED) fused to its C-terminal, expressed in K562 … (human, UniProt P78324 31-504); test: cell-based or functional assay
Sequence of full length human SIRPα v1 with a small beta-gal fragment (ED) fused to its C-terminal, expressed in K562 … (P78324 31-504): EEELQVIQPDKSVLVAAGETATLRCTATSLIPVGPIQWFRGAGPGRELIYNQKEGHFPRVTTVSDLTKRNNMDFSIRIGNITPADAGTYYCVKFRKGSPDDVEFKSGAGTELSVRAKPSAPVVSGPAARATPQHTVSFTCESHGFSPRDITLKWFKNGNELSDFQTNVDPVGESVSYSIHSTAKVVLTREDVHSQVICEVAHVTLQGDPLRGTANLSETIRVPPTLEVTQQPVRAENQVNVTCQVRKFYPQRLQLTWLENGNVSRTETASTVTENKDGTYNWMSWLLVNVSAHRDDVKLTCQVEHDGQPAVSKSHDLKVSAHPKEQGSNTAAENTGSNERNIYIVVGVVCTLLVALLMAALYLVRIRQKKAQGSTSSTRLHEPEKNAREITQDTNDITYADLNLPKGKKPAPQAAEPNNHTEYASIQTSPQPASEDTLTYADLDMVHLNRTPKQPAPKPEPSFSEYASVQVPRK

[3] = target: T2, C57BL/6 mouse SIRPα ECD recombinant protein (6×His tagged) (C57BL/6 mouse, UniProt P97797 32-373); test: ELISA, recombinant C57BL/6 mouse SIRPα ECD
T2 construct: extracellular domain; Bought from Biointron; not shown: 6×His tag
T2 sequence (looked up): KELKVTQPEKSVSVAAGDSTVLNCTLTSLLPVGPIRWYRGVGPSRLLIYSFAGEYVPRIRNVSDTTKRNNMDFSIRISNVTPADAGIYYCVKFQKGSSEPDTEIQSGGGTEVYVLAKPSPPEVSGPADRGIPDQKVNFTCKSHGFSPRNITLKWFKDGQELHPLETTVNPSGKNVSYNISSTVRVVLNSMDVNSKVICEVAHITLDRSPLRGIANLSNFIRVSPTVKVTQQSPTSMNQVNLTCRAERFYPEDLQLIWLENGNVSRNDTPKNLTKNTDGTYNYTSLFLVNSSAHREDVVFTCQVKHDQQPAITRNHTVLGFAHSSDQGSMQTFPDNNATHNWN
Text: Species cross reactivity of purified chimeric antibodies was detected by ELISA assay using recombinant protein of C57BL/6 mouse SIRPα ECD (FIG. 5A) and FACS assay using CHOK 1 cells stably expressing cyno SIRPα (FIGS. 5B and 5C). All antibodies as tested bind to cyno SIRPα at different levels but have no species cross reactivity against C57BL/6 mouse SIRPα.

[4] = target: T3, full length human SIRPα v1 stably expressed on CHOK1 or 293F cells (human, UniProt P78324 31-504); test: FACS, CHOK1-hSIRPα v1 cells
T3 construct: whole, on cells; also called CHOK1-human SIRPα v1; CHOK1-hSIRPα v1
T3 sequence (P78324 31-504): as the sequence (P78324 31-504) above

[5] = target: Human SIRPα v1 (antigen of the Octet and Biacore affinity measurements) (human, UniProt P78324 31-370, limits assumed); test: BLI (Octet), 1:1 binding model
Sequence of Human SIRPα v1 (antigen of the Octet and Biacore affinity measurements) (P78324 31-370 limits assumed): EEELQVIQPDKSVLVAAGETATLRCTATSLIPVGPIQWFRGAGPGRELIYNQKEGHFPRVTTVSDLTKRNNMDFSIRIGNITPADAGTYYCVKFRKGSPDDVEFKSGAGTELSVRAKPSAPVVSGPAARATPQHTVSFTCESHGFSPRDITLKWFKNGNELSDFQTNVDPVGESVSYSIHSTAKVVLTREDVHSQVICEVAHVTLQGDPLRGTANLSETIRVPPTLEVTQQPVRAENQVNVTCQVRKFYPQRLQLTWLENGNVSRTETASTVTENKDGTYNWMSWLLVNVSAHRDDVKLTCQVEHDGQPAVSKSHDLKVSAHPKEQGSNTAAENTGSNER
Description: The purified chimeric antibodies were characterized for binding affinity against human SIRPα v1, human SIRPα v2 using Bio-Layer Interferometry technology (Octet system). The association and dissociation curves were fit with 1:1 binding model, and the Ka/Kd/KD values for each antibody were calculated.

[6] = target: T1, mFc tagged human SIRPα v1 ECD …; test: competitive ELISA binning, mFc-SIRPα v1 ECD; competitor 042c
Description: as §1

[7] = target: T4, cyno SIRPγ ECD recombinant protein (cyno); test: ELISA, cyno SIRPγ ECD
T4 construct: extracellular domain

[8] = target: T5, human SIRPβL ECD recombinant protein (6×His tagged) (human, UniProt Q5TFQ8 30-371); test: ELISA, hSIRPβI ECD
T5 construct: given variously as SIRPBL, SIRPBI and SIRPβI; Bought from Biointron; also called human SIRPBL ECD; human SIRPBI ECD
T5 sequence (Q5TFQ8 30-371 limits assumed): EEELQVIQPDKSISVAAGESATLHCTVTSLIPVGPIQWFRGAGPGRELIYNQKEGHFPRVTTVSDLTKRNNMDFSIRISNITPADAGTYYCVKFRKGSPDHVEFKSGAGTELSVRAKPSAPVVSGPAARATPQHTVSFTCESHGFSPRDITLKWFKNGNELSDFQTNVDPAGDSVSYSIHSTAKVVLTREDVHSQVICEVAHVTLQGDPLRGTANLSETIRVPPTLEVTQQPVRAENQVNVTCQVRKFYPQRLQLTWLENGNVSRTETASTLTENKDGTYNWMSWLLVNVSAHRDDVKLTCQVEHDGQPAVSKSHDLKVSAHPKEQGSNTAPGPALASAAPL
Text: (§2) Binding activity of the purified chimeric antibodies against SIRPβ and SIRPBI was detected by ELISA assay using recombinant proteins of human SIRPβ ECD (FIGS. 3A and 3B), human SIRPBI ECD (FIGS. 3D and 3E) and FACS assay using CHOK 1 cells stably expressing human SIRPB (FIG. 3C).

[9] = target: T1, mFc tagged human SIRPα v1 ECD …; test: competitive ELISA binning, mFc-SIRPα v1 ECD; competitor 025c
Description: as §1

[10] = target: T6, human SIRPγ stably expressed on 293F cells (human, UniProt Q9P1W8 29-387); test: FACS, 293F-human SIRPγ cells
T6 construct: whole, on cells
T6 sequence (Q9P1W8 29-387): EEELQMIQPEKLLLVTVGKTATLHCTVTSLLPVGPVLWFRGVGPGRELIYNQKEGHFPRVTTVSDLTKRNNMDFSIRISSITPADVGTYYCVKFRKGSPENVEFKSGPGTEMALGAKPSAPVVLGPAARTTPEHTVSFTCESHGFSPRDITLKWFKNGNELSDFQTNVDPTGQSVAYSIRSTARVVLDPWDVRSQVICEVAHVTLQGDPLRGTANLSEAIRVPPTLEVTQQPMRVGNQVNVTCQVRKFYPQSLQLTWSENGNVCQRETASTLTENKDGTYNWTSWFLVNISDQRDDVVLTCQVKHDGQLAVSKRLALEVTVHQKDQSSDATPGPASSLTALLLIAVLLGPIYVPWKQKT

[11] = target: T7, human SIRPα v1 ECD recombinant protein (tag not given) (human, UniProt P78324 31-373); test: competitive ELISA, mFc-CD47 ECD on coated SIRPα v1 ECD
T7 construct: extracellular domain; also called biotin labeled soluble human SIRPα v1 ECD recombinant protein; ELISA microplate coated human SIRPα v1 ECD
T7 sequence (P78324 31-373): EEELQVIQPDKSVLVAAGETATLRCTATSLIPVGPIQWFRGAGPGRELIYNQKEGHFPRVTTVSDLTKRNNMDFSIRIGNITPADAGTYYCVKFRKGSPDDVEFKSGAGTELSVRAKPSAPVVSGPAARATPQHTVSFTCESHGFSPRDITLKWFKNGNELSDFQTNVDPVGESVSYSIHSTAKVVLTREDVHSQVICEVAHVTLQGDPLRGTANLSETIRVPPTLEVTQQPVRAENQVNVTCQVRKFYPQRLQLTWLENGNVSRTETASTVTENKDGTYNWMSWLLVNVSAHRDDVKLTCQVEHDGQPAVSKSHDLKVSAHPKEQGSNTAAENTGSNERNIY
Description: (§3) Competitive ELISA assay was used to determine whether the purified chimeric antibodies can block CD47 and SIRPα interaction. Briefly, antibody and mFc tagged human CD47 ECD recombinant protein were co-incubated with ELISA microplate coated human SIRPα v1 ECD (FIGS. 6A and 6B) or human SIRPα v2 ECD (FIGS. 7A and 7B) recombinant protein. After washing, HRP labeled anti-mouse Fc 2nd antibody (Sigma) was added and incubated at 37° C. for 1 hour. Then, 100 μl/well of TMB solution (Biotechnology) was added. After incubation for 15 minutes at room temperature, the reaction was stopped by the addition of 50 μl of 1N HCl. OD 450 nm was read. Blocking ratio was determined by blockade of human CD47 ECD recombinant protein binding to ELISA microplate coated human SIRPα ECD recombinant protein. Other than 005, all antibodies as tested can block interaction between human CD47 and different human SIRPα variants.

[12] = target: T8, human SIRPβ ECD recombinant protein (6×His tagged) (human, UniProt O00241 30-371); test: ELISA, hSIRPβ ECD
T8 construct: extracellular domain; Bought from Sino Biological; also called hSIRPβ ECD; not shown: 6×His tag
T8 sequence (O00241 30-371): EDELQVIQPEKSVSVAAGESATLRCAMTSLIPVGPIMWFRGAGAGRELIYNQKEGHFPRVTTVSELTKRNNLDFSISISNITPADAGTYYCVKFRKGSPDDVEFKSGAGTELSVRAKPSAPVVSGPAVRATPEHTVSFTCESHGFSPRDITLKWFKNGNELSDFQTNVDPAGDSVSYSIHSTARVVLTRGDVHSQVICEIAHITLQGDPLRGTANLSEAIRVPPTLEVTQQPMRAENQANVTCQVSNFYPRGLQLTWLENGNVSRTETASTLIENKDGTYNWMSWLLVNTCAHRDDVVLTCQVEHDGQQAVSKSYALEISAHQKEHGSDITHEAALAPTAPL
Text: as §2

[13] = target: T9, human SIRPα v2 ECD recombinant protein (tag not given) (human); test: competitive ELISA, mFc-CD47 ECD on coated SIRPα v2 ECD
T9 construct: extracellular domain; also called ELISA microplate coated human SIRPα v2 ECD
Description: as §3

[14] = target: T10, human SIRPβ stably expressed on CHOK1 cells (human, UniProt O00241 30-398); test: FACS, CHOK1-hSIRPβ cells
T10 construct: whole, on cells; also called CHOK1-human SIRPB; CHOK1-hSIRPβ
T10 sequence (O00241 30-398): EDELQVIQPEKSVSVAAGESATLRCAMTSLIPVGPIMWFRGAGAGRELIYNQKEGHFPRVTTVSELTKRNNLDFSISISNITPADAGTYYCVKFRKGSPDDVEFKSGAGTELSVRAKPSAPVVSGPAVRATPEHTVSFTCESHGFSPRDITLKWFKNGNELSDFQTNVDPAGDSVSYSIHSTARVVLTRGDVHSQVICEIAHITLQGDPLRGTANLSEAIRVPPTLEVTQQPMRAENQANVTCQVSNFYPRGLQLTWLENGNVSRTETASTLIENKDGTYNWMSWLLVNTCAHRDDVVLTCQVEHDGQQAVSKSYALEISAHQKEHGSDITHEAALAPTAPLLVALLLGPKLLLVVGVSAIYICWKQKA
Text: as §2

[15] = target: T3, full length human SIRPα v1 stably …; test: FACS, 293F-hSIRPα v1 cells

T1 sequence (P78324 31-373): as the sequence (P78324 31-373) above

% Competition [1]: 37.7%
SHP-1 recruitment blocking, IC50 [2]: 5.66 nM
SHP-1 recruitment blocking, TOP blocking (%) [2]: 51.2%
binding result [3]: no binding
EC50 [4]: 1.5 nM
TOP MFI [4]: 67800 MFI
Kd [5]: 6.07 nM
koff [5]: 0.00303 s⁻¹
kon [5]: 499000 M⁻¹ s⁻¹
% Competition [6]: 93.6%
EC50 [7]: 45.5 nM
TOP OD450 [7]: 0.92 OD450
EC50 [8]: 0.27 nM
TOP OD450 [8]: 2.64 OD450
% Competition [9]: 9.1%
EC50 [10]: 12.6 nM
TOP MFI [10]: 728 MFI
IC50 [11]: 2.74 nM
TOP blocking (%) [11]: 95.1%
EC50 [12]: 2.14 nM
TOP OD450 [12]: 3.07 OD450
IC50 [13]: 4.92 nM
TOP blocking (%) [13]: 82.8%
EC50 [14]: 22.9 nM
TOP MFI [14]: 2630 MFI
B1: 073c (antibody, V domains shown)
VH: QIQLVQSGPELKKPGETVKISCKASGYTFTTYGMSWVKQAPGKGLKWMVWINTYSGVPTYADDFKGRFAFSLETSASTSYLQINNLKNEDTATYFCARDPHYYGSSPAWFVYWGQGTLVTVSA
VL: DIVMTQSQKFMSTTIGDRVSITCEASQIVGIAVAWYQQKPGQSPKLLIYSASNRYTGVPDRFTGSGSGTDFTLTISNMQSEDLANYFCQQYSAYPFTFGSGTKLEVK
notes: also called chimeric antibody 073c

SHP-1 recruitment blocking, IC50 [2]: 3.85 nM
SHP-1 recruitment blocking, TOP blocking (%) [2]: 76.4%
EC50 [15]: 3.88 nM
B2: 005c (antibody, V domains shown)
VH: EVKLVESGGGLVQPGGSLSLSCAASGFTFTDYYMSWVRQPPGKALEWLGFIKNEANGYTTESSASVKGRFTISRDNSQSILYLQMNALRAEDSATYYCARYDYYGSNYNWYFDAWGTGTTVTVSS
VL: DIVMTQSQKFMSPSVGDRVSITCKASQNVRTAVAWYQQKPGQSPKVLIHLASKRHTGVPDRFTGSGSGTDFTLTISNVQSEDLADYFCLQHWIHPLTFGAGTKLELK
notes: also called chimeric antibody 005c
